Experiment [1] addresses H2A.Z-containing nucleosome (H. sapiens histone octamer, H2B labeled with ATTO643) assembled on lambda-DNA (H. sapiens) (UniProt P0C0S5). The experiment is described as follows: single-molecule DNA curtains (TIRF; two-colour co-localization); ATTO643-labeled H2A.Z nucleosomes on sparsely chromatinized double-tethered lambda-DNA, washed with 350 mM NaCl; LD555-INO80 flushed in, flow stopped; DNA curtains buffer with 1 mM ATP.

The target of experiment [2] is S. cerevisiae wild-type INO80 complex, labeled with LD555 (S. cerevisiae) (UniProt P53115). The experiment in a line: single-molecule DNA curtains (TIRF; fluorescence intensity and photobleaching steps); LD555-labeled INO80 on double-tethered lambda-DNA; 20 mM HEPES pH 8.0, 1 mg/mL BSA, 4 mM Mg(OAc)2, 1 mM ATP, 1 mM DTT, 120 mM KGlu; 125 to 250 pM INO80 injected.

In the case of “S. cerevisiae wild-type INO80 complex, labeled with LD555 (from UniProt P53115 1-1489; Q03940 1-463; Q12464 1-471; P53946 1-755; P32617 1-166; P60010 1-375; P80428 1-489; Q12386 1-881; P35189 1-244; P40154 1-320; Q08561 1-116; P43579 1-692; Q12345 1-250; P40060 1-125; Q03435 1-203)”, in experiment [1], the co-localization time, second population (short associations) stood at 16.6 s; the co-localization time, third population (extremely long-lived co-localizations) amounted to 1200 s; the median interaction (co-localization) time came to 15.3 s.
As a reminder, the stoichiometry N is the number of molecules, sites or subunits per partner or assembly. In experiment [2], “S. cerevisiae wild-type INO80 complex, labeled with LD555 (from UniProt P53115 1-1489; Q03940 1-463; Q12464 1-471; P53946 1-755; P32617 1-166; P60010 1-375; P80428 1-489; Q12386 1-881; P35189 1-244; P40154 1-320; Q08561 1-116; P43579 1-692; Q12345 1-250; P40060 1-125; Q03435 1-203) (complex; LD555 on the ybbR-tag (Sfp with LD555-CoA); LD555 on the ybbR-tag (Sfp with LD555-CoA))” had a percent of DNA-bound complexes that are dimers of 11% and a stoichiometry N of 2.

For the origin of these results see PMC13623949.
